Consider 7 substances from article PMC7549369.

Test [1] deals with SipL-3×FLAG (Clostridioides difficile) (UniProt Q181G7). In words: co-IP; SipL-3×FLAG immunoprecipitated with anti-FLAG magnetic beads from cleared lysates of sporulating C. difficile (22 h in the legend, 24 h in the methods), eluted with FLAG peptide; untagged SpoIVA detected by Western blot; SpoIVA/SipL ratio in the elution set to 1 for WT. In general terms: In western blotting, separated proteins are transferred to a membrane and probed.

Test [2] has as its target SipL (bacterial two-hybrid fusion from pKNT25-sipL) (Clostridioides difficile) (UniProt Q181G7). The test can be described thus: two-hybrid; bacterial adenylate cyclase two-hybrid (BACTH) in E. coli BTH101; pKNT25-sipL with pUT18C-spoIVA variants; plates with 0.5 mM IPTG, 40 h at 30°C; β-galactosidase activity in Miller units.

Regarding “SpoIVA K35A, untagged, in sporulating C. difficile (from UniProt Q182W3 1-491) (natural protein)”, in test [1], the fold less coimmunoprecipitated with SipL-3×FLAG relative to wild-type SpoIVA amounted to 3 fold.
As to “SpoIVA T75A (bacterial two-hybrid fusion, pUT18C) (from UniProt Q182W3 1-491) (natural protein)”, in test [2], the fold increase of binding to SipL relative to WT SpoIVA (β-galactosidase activity) came out at 2 fold.
Take “SpoIVA D102A, untagged, in sporulating C. difficile (from UniProt Q182W3 1-491) (natural protein)”: the fold more coimmunoprecipitated with SipL-3×FLAG relative to wild-type SpoIVA in test [1] was found to be 1.8 fold.
Same read-out and setting: the same measure for “SpoIVA T75A, untagged, in sporulating C. difficile (from UniProt Q182W3 1-491) (natural protein)”: 1.5 fold.
In test [2], “SpoIVA K35E (bacterial two-hybrid fusion, pUT18C) (from UniProt Q182W3 1-491) (natural protein)” displayed a fold reduction of binding to SipL relative to wild-type SpoIVA (β-galactosidase activity) of 100 fold.
Still for that read-out and setting: the same measure for “SpoIVA K35A (bacterial two-hybrid fusion, pUT18C) (from UniProt Q182W3 1-491) (natural protein)”: 3 fold.
Consider “SpoIVA K35E, untagged, in sporulating C. difficile (from UniProt Q182W3 1-491) (natural protein)”, for which the fold less coimmunoprecipitated with SipL-3×FLAG relative to wild-type SpoIVA in test [1] turned out to be 10 fold.
